The target in one data set is T1, Lin28A (UniProt Q8K3Y3 Q8K3Y3:1-209).
T1 sequence: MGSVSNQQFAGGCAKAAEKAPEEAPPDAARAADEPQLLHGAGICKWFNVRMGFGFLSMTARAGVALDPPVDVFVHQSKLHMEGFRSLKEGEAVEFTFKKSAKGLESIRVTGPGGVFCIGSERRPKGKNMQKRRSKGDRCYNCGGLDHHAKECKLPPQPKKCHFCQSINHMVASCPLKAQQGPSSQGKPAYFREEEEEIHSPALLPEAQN
In words: EMSA. Particulars: tags: 6xHis, E. coli; label: 5'-32P; hairpin with 3' oligoU tail. The procedure: (§1) EMSA experiments were performed as described previously. Briefly, 1 nM of the indicated radiolabeled synthetic RNA was incubated in the binding buffer (50 mM Tris pH 7.6, 100 mM NaCl, 10 mM […], 1 unit/µl RNaseOUT) with varying concentrations of catalytically inert recombinant 6x-His Dis3L2 or recombinant 6x-His Lin28 in the absence of competitor RNA. Nucleoprotein complexes were resolved by 4-20% non-denaturing TBE gel electrophoresis (Biorad, #345-0059) and visualized by autoradiography.

The target in another data set is T2, Dis3l2 D389N (Mus musculus, UniProt Q8CI75 Q8CI75:1-870, D389N).
T2 sequence: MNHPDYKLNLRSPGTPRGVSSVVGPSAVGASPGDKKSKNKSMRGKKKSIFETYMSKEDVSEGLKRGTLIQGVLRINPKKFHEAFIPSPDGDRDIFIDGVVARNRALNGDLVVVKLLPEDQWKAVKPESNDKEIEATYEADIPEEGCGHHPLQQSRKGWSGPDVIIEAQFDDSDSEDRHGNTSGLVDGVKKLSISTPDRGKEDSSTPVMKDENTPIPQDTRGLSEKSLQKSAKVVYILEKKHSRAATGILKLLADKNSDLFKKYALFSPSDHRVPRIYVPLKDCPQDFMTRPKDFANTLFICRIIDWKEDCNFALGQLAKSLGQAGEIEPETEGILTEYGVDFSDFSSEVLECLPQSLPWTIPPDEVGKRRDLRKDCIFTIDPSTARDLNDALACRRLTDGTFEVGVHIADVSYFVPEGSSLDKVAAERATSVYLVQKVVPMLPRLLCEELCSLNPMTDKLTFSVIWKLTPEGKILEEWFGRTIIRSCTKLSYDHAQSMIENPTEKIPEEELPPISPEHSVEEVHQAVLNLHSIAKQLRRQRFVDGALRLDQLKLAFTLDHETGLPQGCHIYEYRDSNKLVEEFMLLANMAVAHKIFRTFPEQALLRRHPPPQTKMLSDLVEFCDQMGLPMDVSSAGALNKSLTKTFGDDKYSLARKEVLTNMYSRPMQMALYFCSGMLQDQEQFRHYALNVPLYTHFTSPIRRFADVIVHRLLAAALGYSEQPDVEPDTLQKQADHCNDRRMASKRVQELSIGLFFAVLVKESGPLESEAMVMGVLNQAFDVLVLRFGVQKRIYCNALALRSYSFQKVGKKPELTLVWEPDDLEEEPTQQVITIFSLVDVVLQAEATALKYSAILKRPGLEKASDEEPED
In words: EMSA; 1 nM RNA, 50 mM Tris pH 7.6, 100 mM NaCl. Particulars: tags: 6xHis, E. coli; label: 5'-32P; hairpin with 3' oligoU tail. The procedure:
as §1
For orientation: Mobility shift assays separate free from complexed probe on a gel.

The target of data set [1] is T3, Dis3l2 (recombinant 6xHis) (Mus musculus, UniProt Q8CI75 Q8CI75:1-870).
T3 sequence: T2 sequence with N389D
In words: cleavage_in_vitro; relative RNA stability difference versus non-uridylated; 0.05 mM MgCl2, 50 mM KCl, pH 7.5, 37 C. Particulars: tags: 6xHis, pETDuet-1, E. coli; label: 5'-32P; hairpin with 3' oligoU tail. How it is done: RNA degradation assays were performed in a total of 20 µl reaction using 6.25 nM 5' end-labeled pre-miR-21, pre-let-7a-1, or pre-let-7a-1+14U RNA (see Table 2) together with Dis3l2 and/or Lin28A. The reactions were set up in the RNA degradation buffer (20 mM HEPES-KOH pH 7.5, 50 mM KCl, 0.05 mM MgCl2, 1 mM DTT) and incubated at 37° C. for 90 minutes. For time-course assays; recombinant 6x-His Dis3l2 was incubated with radiolabeled pre-let-7a-1 or pre-let-7a-1+14U. Bands from three independent experiments were quantified using ImageJ (NIH) and plotted using Prism (Graphpad). Values were fitted to one-phase decay curves with error bars representing +/- s.d. (n=3). For Uridylation-stimulated degradation assays; in vitro uridylation assays were performed as described previously[20,26,27] except with the addition of 10 µM cold competitor uridine triphosphate and immunopurified Dis3l2 where indicated.

Another data set addresses T4, Dis3l2 D389N (Flag) (Mus musculus, UniProt Q8CI75 Q8CI75:1-870, D389N).
T4 sequence: T2 sequence
In words: EMSA; retains binding though catalytically inactive. To be noted: tags: Flag, immunopurified from V6.5 ESC; label: 5'-32P; hairpin with 3' oligoU tail.

Residue numbers refer to the chain shown, from its start.

B1: mmu-pre-let-7a-1+14U (ssRNA)
RNA: UGAGGUAGUAGGUUGUAUAGUUUUAGGGUCACACCCACCACUGGGAGAUAACUAUACAAUCUACUGUCUUUCCUUUUUUUUUUUUUU
B1: the binding result with Lin28A, with Dis3l2 D389N and with Dis3l2 D389N (Flag) was “binds” in each case. Further, the activity in data set [1] is above 10 fold.
